# According to patent US9176064B2, “Bisubstrate fluorescent probes for protein kinase CK2” (University of Tartu, priority 2012, dated 2015):
# Where a SMILES comes first, the peptide text is derived from it. [ ]: non-standard residue; d: D form. The star is where a group is joined. X1 = O=C(CCCCCCCn1cnc2c(Br)c(Br)c(Br)c(Br)c21)*
# Key:
# Test in all cases: Kinase panel residual activity
# Assay type in all cases: biochemical
# Conditions in all cases: compound at 1 micromolar
# [1] = target: T1, EPH-B4 (Homo sapiens, UniProt P54760)
# T1 sequence (P54760 16-987): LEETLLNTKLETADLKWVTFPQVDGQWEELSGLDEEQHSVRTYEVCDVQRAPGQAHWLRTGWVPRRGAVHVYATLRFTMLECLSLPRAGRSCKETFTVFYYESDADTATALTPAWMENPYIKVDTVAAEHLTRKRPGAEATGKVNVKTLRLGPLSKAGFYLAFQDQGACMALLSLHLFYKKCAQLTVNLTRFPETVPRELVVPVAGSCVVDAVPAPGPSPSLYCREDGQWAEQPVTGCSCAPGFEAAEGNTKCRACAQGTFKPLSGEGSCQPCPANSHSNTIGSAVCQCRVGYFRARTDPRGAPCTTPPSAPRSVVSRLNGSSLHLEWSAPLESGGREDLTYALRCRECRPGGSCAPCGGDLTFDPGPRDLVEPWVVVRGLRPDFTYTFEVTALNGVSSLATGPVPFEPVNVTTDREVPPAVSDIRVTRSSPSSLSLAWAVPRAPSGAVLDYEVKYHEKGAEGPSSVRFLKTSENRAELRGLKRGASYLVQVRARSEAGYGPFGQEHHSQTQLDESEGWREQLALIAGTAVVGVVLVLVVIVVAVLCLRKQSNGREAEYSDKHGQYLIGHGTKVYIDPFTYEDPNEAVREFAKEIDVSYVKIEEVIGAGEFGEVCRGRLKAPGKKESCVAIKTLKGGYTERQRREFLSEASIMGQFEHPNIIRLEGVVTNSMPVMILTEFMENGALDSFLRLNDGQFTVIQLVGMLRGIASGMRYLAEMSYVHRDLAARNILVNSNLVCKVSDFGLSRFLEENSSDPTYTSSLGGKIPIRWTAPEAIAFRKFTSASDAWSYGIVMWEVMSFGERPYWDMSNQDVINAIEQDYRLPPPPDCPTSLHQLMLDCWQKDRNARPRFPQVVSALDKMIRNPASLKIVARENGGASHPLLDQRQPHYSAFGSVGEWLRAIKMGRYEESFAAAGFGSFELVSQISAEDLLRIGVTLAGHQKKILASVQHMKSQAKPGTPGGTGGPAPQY
# [2] = target: PAK2 (Homo sapiens, UniProt Q13177)
# [3] = target: SIK3 (Homo sapiens, UniProt Q9Y2K2)
# [4] = target: Aurora B (Homo sapiens, UniProt Q96GD4)
# [5] = target: PIM3 (Homo sapiens, UniProt Q86V86)
# [6] = target: T2, SGK1 (Homo sapiens, UniProt O00141)
# T2 sequence (O00141 1-431): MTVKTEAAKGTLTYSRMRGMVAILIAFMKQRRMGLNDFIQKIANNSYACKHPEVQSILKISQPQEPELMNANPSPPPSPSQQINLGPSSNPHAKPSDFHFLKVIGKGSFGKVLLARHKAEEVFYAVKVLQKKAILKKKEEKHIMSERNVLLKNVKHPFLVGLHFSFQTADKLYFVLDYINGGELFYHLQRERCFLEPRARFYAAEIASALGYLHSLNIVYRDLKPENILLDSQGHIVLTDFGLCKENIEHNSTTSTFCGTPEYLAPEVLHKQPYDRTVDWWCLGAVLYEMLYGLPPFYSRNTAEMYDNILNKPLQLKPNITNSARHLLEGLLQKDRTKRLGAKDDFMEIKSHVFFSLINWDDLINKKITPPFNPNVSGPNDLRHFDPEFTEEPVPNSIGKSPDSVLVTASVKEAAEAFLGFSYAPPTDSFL
# [7] = target: T3, DYRK3 (Homo sapiens, UniProt O43781)
# T3 sequence (O43781 1-588): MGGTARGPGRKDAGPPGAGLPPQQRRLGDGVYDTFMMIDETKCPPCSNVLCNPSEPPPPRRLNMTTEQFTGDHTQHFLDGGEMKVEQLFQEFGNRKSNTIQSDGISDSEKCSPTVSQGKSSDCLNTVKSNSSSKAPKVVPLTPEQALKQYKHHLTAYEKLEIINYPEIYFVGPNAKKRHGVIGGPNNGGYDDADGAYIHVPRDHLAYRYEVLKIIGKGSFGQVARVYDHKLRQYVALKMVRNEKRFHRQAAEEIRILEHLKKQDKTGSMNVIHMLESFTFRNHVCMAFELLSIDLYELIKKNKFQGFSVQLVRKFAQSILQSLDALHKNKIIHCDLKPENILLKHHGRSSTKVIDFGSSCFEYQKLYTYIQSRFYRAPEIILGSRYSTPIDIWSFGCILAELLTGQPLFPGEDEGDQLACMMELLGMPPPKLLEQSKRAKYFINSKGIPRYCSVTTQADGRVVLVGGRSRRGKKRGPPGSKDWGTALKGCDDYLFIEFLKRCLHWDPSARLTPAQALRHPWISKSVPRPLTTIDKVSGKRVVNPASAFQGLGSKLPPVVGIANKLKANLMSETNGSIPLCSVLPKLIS
# [8] = target: IRAK1 (Homo sapiens, UniProt P51617)
# Sequence of IRAK1 (P51617 whole entry, species assumed): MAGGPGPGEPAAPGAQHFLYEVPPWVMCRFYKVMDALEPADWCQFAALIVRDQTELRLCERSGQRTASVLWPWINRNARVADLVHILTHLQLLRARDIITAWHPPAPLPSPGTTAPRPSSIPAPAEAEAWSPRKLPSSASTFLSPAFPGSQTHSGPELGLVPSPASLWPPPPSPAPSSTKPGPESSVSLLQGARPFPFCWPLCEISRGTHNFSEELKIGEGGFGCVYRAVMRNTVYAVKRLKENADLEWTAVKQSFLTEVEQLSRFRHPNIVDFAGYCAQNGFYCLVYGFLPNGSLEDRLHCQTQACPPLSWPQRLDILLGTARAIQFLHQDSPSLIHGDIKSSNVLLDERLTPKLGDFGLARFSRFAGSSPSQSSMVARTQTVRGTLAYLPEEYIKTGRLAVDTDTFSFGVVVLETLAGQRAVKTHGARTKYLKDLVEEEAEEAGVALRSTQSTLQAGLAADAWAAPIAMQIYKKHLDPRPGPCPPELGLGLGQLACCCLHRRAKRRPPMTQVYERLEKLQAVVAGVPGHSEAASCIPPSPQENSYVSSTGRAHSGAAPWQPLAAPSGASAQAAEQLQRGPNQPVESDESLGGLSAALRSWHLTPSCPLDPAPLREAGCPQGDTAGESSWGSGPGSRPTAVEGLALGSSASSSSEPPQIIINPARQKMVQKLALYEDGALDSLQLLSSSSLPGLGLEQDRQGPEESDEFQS
# Sequence of SIK3 (Q9Y2K2 whole entry, species assumed): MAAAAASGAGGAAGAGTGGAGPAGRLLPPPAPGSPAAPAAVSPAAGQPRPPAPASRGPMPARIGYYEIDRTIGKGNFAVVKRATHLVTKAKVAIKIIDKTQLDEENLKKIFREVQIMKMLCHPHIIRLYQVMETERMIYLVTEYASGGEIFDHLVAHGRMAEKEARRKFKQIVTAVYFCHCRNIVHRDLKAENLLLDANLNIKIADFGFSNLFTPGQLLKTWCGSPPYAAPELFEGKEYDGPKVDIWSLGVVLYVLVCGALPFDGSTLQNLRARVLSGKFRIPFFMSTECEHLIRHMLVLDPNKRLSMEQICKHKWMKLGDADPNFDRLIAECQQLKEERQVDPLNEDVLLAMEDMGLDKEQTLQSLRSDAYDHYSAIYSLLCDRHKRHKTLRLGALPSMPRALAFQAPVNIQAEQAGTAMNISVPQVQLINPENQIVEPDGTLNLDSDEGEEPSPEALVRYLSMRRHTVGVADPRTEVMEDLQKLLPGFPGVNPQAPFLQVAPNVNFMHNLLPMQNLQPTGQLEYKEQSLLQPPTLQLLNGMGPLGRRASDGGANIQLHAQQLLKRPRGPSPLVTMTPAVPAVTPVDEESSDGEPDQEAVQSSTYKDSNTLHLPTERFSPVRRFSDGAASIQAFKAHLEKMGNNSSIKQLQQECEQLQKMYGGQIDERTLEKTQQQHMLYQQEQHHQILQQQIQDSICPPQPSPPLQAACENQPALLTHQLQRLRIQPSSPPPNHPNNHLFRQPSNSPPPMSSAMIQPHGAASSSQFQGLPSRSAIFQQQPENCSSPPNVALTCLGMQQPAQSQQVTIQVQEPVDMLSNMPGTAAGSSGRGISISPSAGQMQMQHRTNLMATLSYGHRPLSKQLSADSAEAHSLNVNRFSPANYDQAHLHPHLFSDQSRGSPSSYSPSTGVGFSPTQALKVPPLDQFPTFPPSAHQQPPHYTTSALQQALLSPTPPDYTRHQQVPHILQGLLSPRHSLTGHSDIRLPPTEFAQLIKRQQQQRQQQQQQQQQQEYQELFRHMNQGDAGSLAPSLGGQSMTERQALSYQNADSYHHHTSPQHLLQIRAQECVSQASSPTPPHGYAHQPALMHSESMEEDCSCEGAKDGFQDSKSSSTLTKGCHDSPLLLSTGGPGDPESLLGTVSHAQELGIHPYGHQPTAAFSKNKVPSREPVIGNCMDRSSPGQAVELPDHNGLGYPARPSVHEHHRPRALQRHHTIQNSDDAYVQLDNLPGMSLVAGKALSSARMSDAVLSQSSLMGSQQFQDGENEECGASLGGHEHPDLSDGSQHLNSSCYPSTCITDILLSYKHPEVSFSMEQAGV
# Sequence of PAK2 (Q13177 whole entry, species assumed): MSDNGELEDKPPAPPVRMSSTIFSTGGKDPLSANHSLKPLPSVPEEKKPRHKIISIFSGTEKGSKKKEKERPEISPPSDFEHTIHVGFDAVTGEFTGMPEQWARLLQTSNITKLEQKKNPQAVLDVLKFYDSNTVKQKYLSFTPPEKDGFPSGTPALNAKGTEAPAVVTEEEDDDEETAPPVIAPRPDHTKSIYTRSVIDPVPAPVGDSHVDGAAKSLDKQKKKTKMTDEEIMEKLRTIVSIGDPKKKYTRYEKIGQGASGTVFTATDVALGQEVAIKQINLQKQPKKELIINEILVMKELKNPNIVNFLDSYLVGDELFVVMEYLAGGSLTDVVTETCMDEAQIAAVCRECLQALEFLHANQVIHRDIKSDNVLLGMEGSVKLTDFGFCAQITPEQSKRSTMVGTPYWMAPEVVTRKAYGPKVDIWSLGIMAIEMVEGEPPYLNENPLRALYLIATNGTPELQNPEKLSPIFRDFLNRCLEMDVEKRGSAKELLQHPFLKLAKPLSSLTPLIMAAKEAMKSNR
# Sequence of Aurora B (Q96GD4 whole entry): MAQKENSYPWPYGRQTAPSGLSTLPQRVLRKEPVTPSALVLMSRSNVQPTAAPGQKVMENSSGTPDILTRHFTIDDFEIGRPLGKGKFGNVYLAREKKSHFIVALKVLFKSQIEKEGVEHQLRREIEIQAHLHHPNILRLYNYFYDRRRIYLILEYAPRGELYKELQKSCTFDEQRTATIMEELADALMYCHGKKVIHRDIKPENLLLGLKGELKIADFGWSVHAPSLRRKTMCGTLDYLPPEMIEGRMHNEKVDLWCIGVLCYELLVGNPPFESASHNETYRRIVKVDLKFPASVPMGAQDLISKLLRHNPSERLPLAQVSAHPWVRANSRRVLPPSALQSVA
compound,measurement,setting,value
NCCCC[C@H](NC(=O)[C@H](CC(=O)O)NC(=O)[C@H](CC(=O)O)NC(=O)[C@H](CC(=O)O)NC(=O)[C@H](CC(=O)O)NC(=O)[C@H](CC(=O)O)NC(=O)[C@@H](CC(=O)O)NC(=O)CCCCCCCn1cnc2c(Br)c(Br)c(Br)c(Br)c21)C(=O)O [TBBI-OcA-(D-Asp)-(L-Asp)5-(L-Lys)-OH] (X1-[dD]DDDDDK-OH),remaining activity at 1 µM,[1],104%
same,remaining activity at 1 µM,[2],102%
same,remaining activity at 1 µM,[3],74%
same,remaining activity at 1 µM,[4],100%
same,remaining activity at 1 µM,[5],59%
same,remaining activity at 1 µM,[6],127%
same,remaining activity at 1 µM,[7],30%
same,remaining activity at 1 µM,[8],89%
